Measured values from paper PMC4245941, “Timely binding of IHF and Fis to DARS2 regulates ATP–DnaA production and replication initiation” (Nucleic Acids Research, 2014).

Molecular target: the molecule itself
Assay: native gel or EMSA; DnaA (ADP or ATP form) incubated at 30°C for 5 min in dissociation buffer (20 mM Tris-HCl pH 7.5, 100 mM potassium glutamate, 10 mM magnesium acetate, 2 mM ATP) with DARS2ΔRight or DARS2ΔRight/subFBS1 DNA (15 fmol) and poly (dI-dC), 5% PAGE; DnaA multimers form on the DNA; without or with IHF and Fis

B1: DnaA (wild type) (natural protein, Escherichia coli, UniProt P03004 1-467, looked up)
chain: MSLSLWQQCLARLQDELPATEFSMWIRPLQAELSDNTLALYAPNRFVLDWVRDKYLNNINGLLTSFCGADAPQLRFEVGTKPVTQTPQAAVTSNVAAPAQVAQTQPQRAAPSTRSGWDNVPAPAEPTYRSNVNVKHTFDNFVEGKSNQLARAAARQVADNPGGAYNPLFLYGGTGLGKTHLLHAVGNGIMARKPNAKVVYMHSERFVQDMVKALQNNAIEEFKRYYRSVDALLIDDIQFFANKERSQEEFFHTFNALLEGNQQIILTSDRYPKEINGVEDRLKSRFGWGLTVAIEPPELETRVAILMKKADENDIRLPGEVAFFIAKRLRSNVRELEGALNRVIANANFTGRAITIDFVREALRDLLALQEKLVTIDNIQKTVAEYYKIKVADLLSKRRSRSVARPRQMAMALAKELTNHSLPEIGDAFGGRDHTTVLHACRKIEQLREESHDIKEDFSNLIRTLSS
notes: DnaA, chromosomal replication initiator protein, Escherichia coli, wild type; Used loaded with ADP or ATP (not covalent); also called ADP–DnaA; ATP–DnaA
  binding result: binds
